Measured values reported in publication PMC8575462, “PP2A/B55α substrate recruitment as defined by the retinoblastoma-related protein p107” (eLife, 2021).
Blank lines part the entries; values can stand above or below the molecule they belong to.

Assays:
PP2A/A = test: YFP pulldown, mass spectrometry; settings: -log10 p-value est. 2.2; read off a plot
B55α = test: YFP pulldown, mass spectrometry; settings: -log10 p-value est. 2.6; read off a plot
Flag-pRB = Flag-pRB (UniProt P06400); test: co-immunoprecipitation (anti-Myc IP), western blot quantitation; settings: 293T cells, co-transfected; parent: est. 1.0; read off a plot
Flag-pRB, sequence (P06400 whole entry): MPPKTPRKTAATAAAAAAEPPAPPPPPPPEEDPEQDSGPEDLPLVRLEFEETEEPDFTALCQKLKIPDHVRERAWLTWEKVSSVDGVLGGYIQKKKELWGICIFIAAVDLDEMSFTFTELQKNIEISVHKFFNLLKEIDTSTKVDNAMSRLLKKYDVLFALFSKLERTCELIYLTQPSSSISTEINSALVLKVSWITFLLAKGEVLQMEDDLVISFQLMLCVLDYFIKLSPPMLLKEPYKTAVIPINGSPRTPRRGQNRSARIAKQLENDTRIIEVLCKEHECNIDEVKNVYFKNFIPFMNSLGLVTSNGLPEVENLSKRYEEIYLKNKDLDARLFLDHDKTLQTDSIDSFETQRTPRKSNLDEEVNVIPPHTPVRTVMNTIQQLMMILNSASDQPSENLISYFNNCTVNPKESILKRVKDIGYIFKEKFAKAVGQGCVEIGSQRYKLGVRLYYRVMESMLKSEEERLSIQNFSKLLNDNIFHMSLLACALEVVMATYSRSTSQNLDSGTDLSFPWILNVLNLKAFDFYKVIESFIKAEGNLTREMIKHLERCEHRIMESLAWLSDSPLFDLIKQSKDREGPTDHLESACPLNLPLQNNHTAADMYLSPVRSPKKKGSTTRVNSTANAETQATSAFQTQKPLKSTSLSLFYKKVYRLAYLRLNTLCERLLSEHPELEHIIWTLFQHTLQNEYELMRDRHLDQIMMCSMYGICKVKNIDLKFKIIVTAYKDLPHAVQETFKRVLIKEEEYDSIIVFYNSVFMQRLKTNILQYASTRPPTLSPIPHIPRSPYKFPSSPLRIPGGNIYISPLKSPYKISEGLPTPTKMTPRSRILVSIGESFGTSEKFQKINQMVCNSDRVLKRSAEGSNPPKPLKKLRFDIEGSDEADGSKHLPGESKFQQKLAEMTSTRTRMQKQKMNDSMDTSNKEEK

[1] = target: purified PP2A/B55α holoenzyme (trimeric Flag-B55α/PP2A holoenzyme), P63151;P30153;P67775; test: peptide competition of GST-p107 R1R2 pull-down of purified PP2A/B55α, western blot quantified with ImageJ; settings: lower B55α signal = peptide competes for B55α, read off a plot
[2] = target: T1, purified monomeric full-length B55α (M1-N447) (UniProt P63151 1-447); test: NMR titration; 2D [1H,15N] HSQC of 15N-labeled p107 (M612-S687) with and without unlabeled B55α mixed at 1:1 ratio; 283 K; 20 mM sodium phosphate pH 6.8, 250 or 50 mM NaCl, 0.5 mM TCEP; settings: both partners purified
T1 construct: B55α M1-N447; also called B55α_(1-447); purified B55α; source: Expi293F, transfected, purified (GFP-nanobody beads, TEV cleavage, Mono Q); not shown: His6, N-terminal, cleaved; GFP, N-terminal, cleaved
T1 sequence (looked up): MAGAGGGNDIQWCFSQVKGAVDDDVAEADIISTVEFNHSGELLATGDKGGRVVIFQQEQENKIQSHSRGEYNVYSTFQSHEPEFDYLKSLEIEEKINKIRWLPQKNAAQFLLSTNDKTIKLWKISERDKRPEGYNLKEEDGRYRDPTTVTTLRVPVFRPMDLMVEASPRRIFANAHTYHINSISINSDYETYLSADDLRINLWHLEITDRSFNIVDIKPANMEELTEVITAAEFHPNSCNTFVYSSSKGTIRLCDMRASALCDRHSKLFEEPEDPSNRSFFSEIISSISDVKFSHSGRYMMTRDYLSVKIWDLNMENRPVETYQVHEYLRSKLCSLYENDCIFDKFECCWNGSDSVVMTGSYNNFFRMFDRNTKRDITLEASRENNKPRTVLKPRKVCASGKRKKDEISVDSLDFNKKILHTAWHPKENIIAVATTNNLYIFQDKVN

[3] = Peptides (at 300 µM), no-peptide control est. 0.68, parent: est. 0.08
[4] = peptide 120 µM, no-peptide control est. 0.68
[5] = peptide 240 µM, no-peptide control est. 0.68, parent: est. 0.07
[6] = Peptides (at 300 µM), no-peptide control est. 0.72, parent: est. 0.32
[7] = Peptides (at 300 µM), no-peptide control est. 0.68, parent: est. 0.09

other: log2 ratio WT-Mut (PP2A/A): 3.2 | other: log2 ratio WT-Mut (B55α): 5.5
Molecule: GFP-p107-R1 (four copies of R1) H619A; R621A; V622A; V625A

ratio to parent (Flag-pRB): 0.28
Molecule: Myc-B55α wild type (from UniProt P63151) EEK-AAA

response [1, 4]: 0.56 | response [1, 5]: 0.57
Molecule: R1 peptide (synthetic p107 peptide encompassing the R1 region) E624A; V625A; R626A

response [1, 6]: 0.38
Molecule: R1 peptide (synthetic p107 peptide encompassing the R1 region) H619A

response [1, 6]: 0.03
Molecule: R1 peptide (synthetic p107 peptide encompassing the R1 region) K623A

response [1, 6]: 0.55
Molecule: R1 peptide (synthetic p107 peptide encompassing the R1 region) R621A

response [1, 4]: 0.8 | response [1, 5]: 0.92
Molecule: R1 peptide (synthetic p107 peptide encompassing the R1 region) R621A; V622A; K623A

response [1, 3]: 0.88
Molecule: R1 peptide (synthetic p107 peptide encompassing the R1 region) V622A

response [1, 7]: 0.6
Molecule: pS615-R1 phosphopeptide, wildtype H619A

Second part, the molecule before the results:

Molecule: R1 peptide (synthetic p107 peptide encompassing the R1 region) E624A
response [1, 3]: 0.02

Molecule: R1 peptide (synthetic p107 peptide encompassing the R1 region) M618A
response [1, 3]: 0.3

Molecule: R1 peptide (synthetic p107 peptide encompassing the R1 region) M618A; H619A; P620A
response [1, 4]: 0.43 | response [1, 5]: 0.41

Molecule: R1 peptide (synthetic p107 peptide encompassing the R1 region) P620A
response [1, 3]: 0.2

Molecule: R1 peptide (synthetic p107 peptide encompassing the R1 region) R626A
response [1, 6]: 0.08

Molecule: R1 peptide (synthetic p107 peptide encompassing the R1 region) S615A; P616A; L617A
response [1, 4]: 0.25 | response [1, 5]: 0.1

Molecule: R1 peptide (synthetic p107 peptide encompassing the R1 region) T627A; D628A; S629A
response [1, 4]: 0.04 | response [1, 5]: 0.02

Molecule: R1 peptide (synthetic p107 peptide encompassing the R1 region) V625A
response [1, 3]: 0.98

Molecule: pS615-R1 phosphopeptide, wildtype R621A
response [1, 7]: 0.82

B1: p107 (M612-S687) (domain or fragment, UniProt P28749 612-687, looked up)
chain: MPMSPLMHPRVKEVRTDSGSLRRDMQPLSPISVHERYSSPTAGSAKRRLFGEDPPKEMLMDKIITEGTKLKIAPSS
modifications: 15N-labeled
notes: p107 residues M612-S687, which include R1, R2 and R3; also called p107_(612-687); source: E. coli BL21, purified (HisTrap, TEV cleavage, heating at 80°C, SEC); not shown: His6, N-terminal, cleaved; MBP, N-terminal, cleaved
binding result [2]: binds
